Measurements from paper PMC3985488.
Where a chain is given by its changes, count along the chain named.

How the values were obtained:
[1] = biological target: T1, Dpo4 Y274W (Sulfolobus solfataricus, UniProt Q97W02 1-352, C31S;Y274W); assay: steady-state Trp fluorescence
T1 sequence: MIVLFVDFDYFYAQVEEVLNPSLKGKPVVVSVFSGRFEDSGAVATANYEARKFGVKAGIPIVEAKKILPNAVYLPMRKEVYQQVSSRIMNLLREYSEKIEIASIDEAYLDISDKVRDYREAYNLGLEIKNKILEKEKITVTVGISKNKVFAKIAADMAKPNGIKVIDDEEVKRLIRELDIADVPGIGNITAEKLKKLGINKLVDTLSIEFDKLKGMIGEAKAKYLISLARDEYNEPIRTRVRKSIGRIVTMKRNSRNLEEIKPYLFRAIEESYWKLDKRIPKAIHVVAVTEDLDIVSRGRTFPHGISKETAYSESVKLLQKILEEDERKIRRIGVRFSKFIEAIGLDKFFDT

[2] = biological target: T2, Dpo4 Y108W-K329C-CPM (Sulfolobus solfataricus, UniProt Q97W02 1-352, C31S;Y108W;K329C); assay: stopped-flow FRET
T2 sequence: T1 sequence with Y108W, W274Y, K329C

[3] = biological target: T3, Dpo4 Y108W (Sulfolobus solfataricus, UniProt Q97W02 1-352, C31S;Y108W); assay: steady-state Trp fluorescence
T3 sequence: T1 sequence with Y108W, W274Y

Measured: binding result

B1: DNAOH 21/30-mer (dsDNA)
DNA 1: CGAGCCGTCGCATCCTACCGC
DNA 2: GATGCTGCAGCGGTAGGATGCGACGGCTCG
binds: all assays above
